Values of other authors, collected in paper PMC10886550.

Tests used:
GyrB (Escherichia coli) = GyrB (Escherichia coli) (UniProt P0AES6)
[1] = molecular target: DNA gyrase (Escherichia coli) (UniProt P0AES4)
Chain of UniProt P0AES4 (P0AES4 2-875): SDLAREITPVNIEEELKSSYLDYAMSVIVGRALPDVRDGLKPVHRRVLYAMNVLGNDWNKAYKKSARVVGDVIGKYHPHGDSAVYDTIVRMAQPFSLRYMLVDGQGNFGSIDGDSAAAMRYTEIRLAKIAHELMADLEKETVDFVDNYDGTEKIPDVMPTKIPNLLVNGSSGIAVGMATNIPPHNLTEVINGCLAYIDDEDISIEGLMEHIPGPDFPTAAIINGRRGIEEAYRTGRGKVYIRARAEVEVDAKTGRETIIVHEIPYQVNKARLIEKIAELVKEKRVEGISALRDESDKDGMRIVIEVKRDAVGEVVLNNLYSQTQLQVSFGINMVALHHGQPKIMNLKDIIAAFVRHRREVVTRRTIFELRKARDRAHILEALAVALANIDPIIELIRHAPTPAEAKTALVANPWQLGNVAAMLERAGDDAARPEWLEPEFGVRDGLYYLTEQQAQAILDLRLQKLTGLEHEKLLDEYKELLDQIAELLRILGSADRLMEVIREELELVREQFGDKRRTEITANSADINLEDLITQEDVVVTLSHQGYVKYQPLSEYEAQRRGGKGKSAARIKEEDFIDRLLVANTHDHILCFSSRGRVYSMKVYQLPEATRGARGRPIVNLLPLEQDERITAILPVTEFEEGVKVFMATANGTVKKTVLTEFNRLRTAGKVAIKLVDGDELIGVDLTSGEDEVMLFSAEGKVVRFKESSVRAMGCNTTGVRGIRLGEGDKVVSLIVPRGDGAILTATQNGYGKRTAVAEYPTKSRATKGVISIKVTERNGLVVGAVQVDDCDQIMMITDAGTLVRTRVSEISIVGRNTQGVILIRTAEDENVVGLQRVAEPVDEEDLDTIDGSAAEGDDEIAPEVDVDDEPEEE

Substance	Kd (GyrB (Escherichia coli))	Kd [1]
YacG (from UniProt P0A8H8)	350 nM	–
GyrI peptide 33-48 (from UniProt P33012)	–	26 µM
